The target of the data set is Hepatocyte growth factor/scatter factor (HGF) (UniProt P14210+P14210). The data set can be described thus: FP. As to conditions: 2'-F pyrimidines.
Chain of Hepatocyte growth factor/scatter factor (HGF) (P14210 32-494, chain 1 of 2): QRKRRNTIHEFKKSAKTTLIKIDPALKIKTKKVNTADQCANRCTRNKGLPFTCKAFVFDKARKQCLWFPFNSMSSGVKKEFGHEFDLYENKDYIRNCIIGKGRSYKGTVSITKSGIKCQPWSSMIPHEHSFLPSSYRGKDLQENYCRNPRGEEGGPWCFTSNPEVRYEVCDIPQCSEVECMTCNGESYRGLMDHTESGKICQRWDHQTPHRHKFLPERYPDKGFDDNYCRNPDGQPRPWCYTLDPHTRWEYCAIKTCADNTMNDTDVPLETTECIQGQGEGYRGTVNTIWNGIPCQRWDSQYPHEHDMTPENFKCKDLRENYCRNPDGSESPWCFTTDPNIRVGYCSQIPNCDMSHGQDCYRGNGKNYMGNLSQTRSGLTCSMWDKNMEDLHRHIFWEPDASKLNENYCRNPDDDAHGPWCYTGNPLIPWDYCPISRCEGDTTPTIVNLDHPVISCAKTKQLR
Chain of Hepatocyte growth factor/scatter factor (HGF) (P14210 495-728, chain 2 of 2): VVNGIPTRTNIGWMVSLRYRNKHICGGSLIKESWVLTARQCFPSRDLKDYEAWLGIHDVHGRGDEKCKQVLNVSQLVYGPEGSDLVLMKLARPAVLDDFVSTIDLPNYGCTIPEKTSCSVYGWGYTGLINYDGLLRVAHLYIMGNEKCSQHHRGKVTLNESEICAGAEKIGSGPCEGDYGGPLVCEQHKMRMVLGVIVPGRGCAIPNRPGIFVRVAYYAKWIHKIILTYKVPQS

“GAGAGNUCCUAUUUAUGACAUCCCAUGCCCCCA [Tr65]” showed a Kd of 1.4 nM.

For orientation: Kd means the concentration at which binding is half-saturated. Read a high Kd as a looser complex.

The values above are taken from US20030049644.
